According to PMC9482650, “Quantitative fragmentomics allow affinity mapping of interactomes” (Nature Communications, 2022):

Tests used:
Assay in all cases: holdup assay
Set-up in all cases: key: below the threshold = too weak to quantify, mostly under pKd 3.1 to 4
APBA3_1, O96018 = molecular target: T1, APBA3_1, O96018
T1 sequence (O96018 389-490, limits assumed, looked up): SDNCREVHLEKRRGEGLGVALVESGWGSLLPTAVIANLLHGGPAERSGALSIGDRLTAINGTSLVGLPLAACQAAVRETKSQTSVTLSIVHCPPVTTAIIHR

DFNB31_1, Q9P202 = molecular target: T2, DFNB31_1, Q9P202
T2 sequence (Q9P202 135-233, limits assumed, looked up): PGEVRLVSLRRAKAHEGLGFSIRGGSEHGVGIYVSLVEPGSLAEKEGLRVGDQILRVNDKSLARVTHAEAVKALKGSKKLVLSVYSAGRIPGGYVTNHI

DFNB31_3, Q9P202 = molecular target: T3, DFNB31_3, Q9P202
T3 sequence (Q9P202 811-907, limits assumed, looked up): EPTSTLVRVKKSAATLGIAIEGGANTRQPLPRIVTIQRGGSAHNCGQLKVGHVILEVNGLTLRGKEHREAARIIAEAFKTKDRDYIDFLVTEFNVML

DLG3_2, Q92796 = molecular target: T4, DLG3_2, Q92796
T4 sequence (Q92796 221-321, limits assumed, looked up): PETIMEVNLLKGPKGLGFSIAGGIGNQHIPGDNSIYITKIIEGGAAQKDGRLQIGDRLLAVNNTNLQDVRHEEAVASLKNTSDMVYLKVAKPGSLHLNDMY

DLG5_1, Q8TDM6 = molecular target: DLG5_1, Q8TDM6
DLG5_1, Q8TDM6, sequence (Q8TDM6 617-713): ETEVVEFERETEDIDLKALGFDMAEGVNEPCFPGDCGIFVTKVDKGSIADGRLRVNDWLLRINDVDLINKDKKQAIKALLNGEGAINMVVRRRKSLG

FRMPD3, Q5JV73 = molecular target: FRMPD3, Q5JV73
FRMPD3, Q5JV73, sequence (Q5JV73 12-100): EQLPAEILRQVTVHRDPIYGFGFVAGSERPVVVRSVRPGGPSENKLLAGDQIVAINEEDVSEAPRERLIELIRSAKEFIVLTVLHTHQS

GORASP2, Q9H8Y8 = molecular target: GORASP2, Q9H8Y8
GRASP, Q7Z6J2 = molecular target: GRASP, Q7Z6J2
GRASP, Q7Z6J2, sequence (Q7Z6J2 96-193): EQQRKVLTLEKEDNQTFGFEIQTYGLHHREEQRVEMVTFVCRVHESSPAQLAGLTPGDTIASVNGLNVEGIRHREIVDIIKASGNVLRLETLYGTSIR

GRID2IP_2, A4D2P6 = molecular target: GRID2IP_2, A4D2P6
GRID2IP_2, A4D2P6, sequence (A4D2P6 272-370): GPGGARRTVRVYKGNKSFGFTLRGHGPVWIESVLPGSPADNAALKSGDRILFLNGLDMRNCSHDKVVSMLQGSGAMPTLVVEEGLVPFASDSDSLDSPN

GRIP1_4, Q9Y3R0 = molecular target: T5, GRIP1_4, Q9Y3R0
T5 sequence (Q9Y3R0 467-571, limits assumed, looked up): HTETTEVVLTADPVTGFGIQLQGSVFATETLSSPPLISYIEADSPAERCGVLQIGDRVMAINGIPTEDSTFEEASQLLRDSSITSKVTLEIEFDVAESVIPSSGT

GRIP2_4, Q9C0E4 = molecular target: GRIP2_4, Q9C0E4
GRIP2_4, Q9C0E4, sequence (Q9C0E4 446-548): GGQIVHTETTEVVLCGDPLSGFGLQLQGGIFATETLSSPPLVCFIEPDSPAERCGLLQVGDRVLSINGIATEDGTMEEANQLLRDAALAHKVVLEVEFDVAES

GRIP2_6, Q9C0E4 = molecular target: GRIP2_6, Q9C0E4
GRIP2_6, Q9C0E4, sequence (Q9C0E4 648-740): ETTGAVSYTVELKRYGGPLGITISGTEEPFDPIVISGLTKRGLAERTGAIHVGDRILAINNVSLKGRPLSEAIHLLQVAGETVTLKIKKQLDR

HTRA3, P83110 = molecular target: T6, HTRA3, P83110
T6 sequence (P83110 354-453, limits assumed, looked up): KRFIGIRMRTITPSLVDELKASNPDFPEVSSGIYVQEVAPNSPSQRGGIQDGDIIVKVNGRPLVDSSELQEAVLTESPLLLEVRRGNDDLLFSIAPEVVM

IL16_3, Q14005 = molecular target: IL16_3, Q14005
IL16_3, Q14005, sequence (Q14005 1107-1207): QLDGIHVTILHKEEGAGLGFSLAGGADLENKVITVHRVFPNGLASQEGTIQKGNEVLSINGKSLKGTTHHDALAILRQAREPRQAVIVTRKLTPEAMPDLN

IL16_4, Q14005 = molecular target: IL16_4, Q14005
IL16_4, Q14005, sequence (Q14005 1229-1329): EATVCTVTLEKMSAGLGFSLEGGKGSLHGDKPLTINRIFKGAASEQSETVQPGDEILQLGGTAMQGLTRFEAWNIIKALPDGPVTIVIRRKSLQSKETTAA

Inadl_9, Q8NI35 = molecular target: Inadl_9, Q8NI35
Inadl_9, Q8NI35, sequence (Q8NI35 1530-1615): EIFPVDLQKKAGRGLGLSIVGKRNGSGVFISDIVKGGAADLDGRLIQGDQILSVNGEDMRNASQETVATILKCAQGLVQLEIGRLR

LNX1_2, Q8TBB1 = molecular target: LNX1_2, Q8TBB1
LNX1_2, Q8TBB1, sequence (Q8TBB1 371-470): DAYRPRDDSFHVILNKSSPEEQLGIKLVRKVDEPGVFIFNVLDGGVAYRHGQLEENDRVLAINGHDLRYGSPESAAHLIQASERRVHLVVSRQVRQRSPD

MAGI2_2, Q86UL8 = molecular target: MAGI2_2, Q86UL8
MAGI2_2, Q86UL8, sequence (Q86UL8 410-522): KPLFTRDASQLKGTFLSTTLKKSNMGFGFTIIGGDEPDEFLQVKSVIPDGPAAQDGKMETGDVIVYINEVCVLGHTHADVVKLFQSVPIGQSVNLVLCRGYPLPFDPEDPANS

MPDZ_12, O75970 = molecular target: T7, MPDZ_12, O75970
T7 sequence (O75970 1857-1958, limits assumed, looked up): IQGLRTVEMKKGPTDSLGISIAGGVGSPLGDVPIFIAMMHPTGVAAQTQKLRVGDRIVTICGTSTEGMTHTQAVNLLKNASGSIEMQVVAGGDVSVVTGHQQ

MPP2, Q14168 = molecular target: T8, MPP2, Q14168
T8 sequence (Q14168 180-250, limits assumed, looked up): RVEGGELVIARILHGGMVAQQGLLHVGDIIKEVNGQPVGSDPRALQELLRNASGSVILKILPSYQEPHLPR

NOS1, P29475 = molecular target: NOS1, P29475
NOS1, P29475, sequence (P29475 9-101): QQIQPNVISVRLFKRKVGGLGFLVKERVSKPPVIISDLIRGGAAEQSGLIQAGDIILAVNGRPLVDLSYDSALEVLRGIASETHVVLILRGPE

PDZRN3_1, Q9UPQ7 = molecular target: T9, PDZRN3_1, Q9UPQ7
T9 sequence (Q9UPQ7 244-349, limits assumed, looked up): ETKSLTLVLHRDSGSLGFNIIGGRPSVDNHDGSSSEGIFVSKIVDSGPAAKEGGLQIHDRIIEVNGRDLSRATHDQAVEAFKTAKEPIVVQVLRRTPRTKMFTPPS

PICK1, Q9NRD5 = molecular target: PICK1, Q9NRD5
PICK1, Q9NRD5, sequence (Q9NRD5 17-115): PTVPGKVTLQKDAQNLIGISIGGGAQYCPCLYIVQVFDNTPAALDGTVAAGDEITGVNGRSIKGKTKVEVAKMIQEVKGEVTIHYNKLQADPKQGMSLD

RADIL, Q96JH8 = molecular target: T10, RADIL, Q96JH8
T10 sequence (Q96JH8 971-1071, limits assumed, looked up): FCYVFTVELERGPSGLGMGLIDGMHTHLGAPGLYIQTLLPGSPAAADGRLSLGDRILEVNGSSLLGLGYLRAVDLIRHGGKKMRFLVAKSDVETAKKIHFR

TIAM2, Q8IVF5 = molecular target: T11, TIAM2, Q8IVF5
T11 sequence (Q8IVF5 885-986, limits assumed, looked up): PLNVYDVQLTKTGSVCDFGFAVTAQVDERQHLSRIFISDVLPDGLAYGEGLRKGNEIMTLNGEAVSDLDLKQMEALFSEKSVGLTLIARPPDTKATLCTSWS

TJP1_3, Q07157 = molecular target: TJP1_3, Q07157
TJP1_3, Q07157, sequence (Q07157 416-512): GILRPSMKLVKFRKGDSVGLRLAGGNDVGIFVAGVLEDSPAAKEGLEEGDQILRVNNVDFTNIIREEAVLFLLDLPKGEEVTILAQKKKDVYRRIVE

[1] = plain residues with an end cap or a label only (N-terminal biotin on a linker: ado-ado)
[2] = plain residues with an end cap or a label only (N-terminal biotin on a linker: ttds)

In the case of RGGFGRQTQI [NCBP2L, A6PVI3], the pKd (APBA3_1, O96018; [1]) is reported as “below the threshold”, the pKd (DFNB31_1, Q9P202; [1]) is reported as 4.78 and the pKd (DFNB31_3, Q9P202; [1]) is reported as 3.67. For the same binder, the pKd (DLG3_2, Q92796; [1]) was 4.68, the pKd (DLG5_1, Q8TDM6; [1]) was “below the threshold” and the pKd (FRMPD3, Q5JV73; [1]) was “below the threshold”. For the same binder, the pKd (GORASP2, Q9H8Y8; [1]) was 4.19, the pKd (GRASP, Q7Z6J2; [1]) was “below the threshold” and the pKd (GRID2IP_2, A4D2P6; [1]) was 4.05. For the same binder, the pKd (GRIP1_4, Q9Y3R0; [1]) was “below the threshold”, the pKd (GRIP2_4, Q9C0E4; [1]) was “below the threshold” and the pKd (GRIP2_6, Q9C0E4; [1]) was “below the threshold”. The pKd (HTRA3, P83110; [1]) was “below the threshold”, the pKd (IL16_3, Q14005; [1]) was “below the threshold” and the pKd (IL16_4, Q14005; [1]) was “below the threshold”. For the same binder, the pKd (Inadl_9, Q8NI35; [1]) was “below the threshold”, the pKd (LNX1_2, Q8TBB1; [1]) was “below the threshold” and the pKd (MAGI2_2, Q86UL8; [1]) was 4.48. For the same binder, the pKd (MPDZ_12, O75970; [1]) was 3.76, the pKd (MPP2, Q14168; [1]) was “below the threshold” and the pKd (NOS1, P29475; [1]) was 4.08. For the same binder, the pKd (PDZRN3_1, Q9UPQ7; [1]) was 3.74, the pKd (PICK1, Q9NRD5; [1]) was “below the threshold” and the pKd (RADIL, Q96JH8; [1]) was “below the threshold”. For the same binder, the pKd (TIAM2, Q8IVF5; [1]) was 4.02 and the pKd (TJP1_3, Q07157; [1]) was “below the threshold”.

With TGDTLEKFVEGL [CBP, Q92793] the pKd (APBA3_1, O96018; [2]) was “below the threshold”, the pKd (DFNB31_1, Q9P202; [2]) was “below the threshold” and the pKd (DFNB31_3, Q9P202; [2]) was “below the threshold”. The pKd (DLG3_2, Q92796; [2]) was “below the threshold”, the pKd (DLG5_1, Q8TDM6; [2]) was “below the threshold” and the pKd (FRMPD3, Q5JV73; [2]) was “below the threshold”. For the same binder, the pKd (GORASP2, Q9H8Y8; [2]) was “below the threshold”, the pKd (GRASP, Q7Z6J2; [2]) was “below the threshold” and the pKd (GRID2IP_2, A4D2P6; [2]) was “below the threshold”. The pKd (GRIP1_4, Q9Y3R0; [2]) was “below the threshold”, the pKd (GRIP2_4, Q9C0E4; [2]) was “below the threshold” and the pKd (GRIP2_6, Q9C0E4; [2]) was “below the threshold”. For the same binder, the pKd (HTRA3, P83110; [2]) was “below the threshold”, the pKd (IL16_3, Q14005; [2]) was “below the threshold” and the pKd (IL16_4, Q14005; [2]) was “below the threshold”. For the same binder, the pKd (Inadl_9, Q8NI35; [2]) was “below the threshold”, the pKd (LNX1_2, Q8TBB1; [2]) was “below the threshold” and the pKd (MAGI2_2, Q86UL8; [2]) was “below the threshold”. The pKd (MPDZ_12, O75970; [2]) was “below the threshold”, the pKd (MPP2, Q14168; [2]) was “below the threshold” and the pKd (NOS1, P29475; [2]) was “below the threshold”. For the same binder, the pKd (PDZRN3_1, Q9UPQ7; [2]) was “below the threshold”, the pKd (PICK1, Q9NRD5; [2]) was “below the threshold” and the pKd (RADIL, Q96JH8; [2]) was “below the threshold”. The pKd (TIAM2, Q8IVF5; [2]) was “below the threshold” and the pKd (TJP1_3, Q07157; [2]) was “below the threshold”.
